{"source": "patent US20240287163A1", "about": "(Chugai, published 2024)", "binders": {"B1": {"name": "COS0637pHv2-FcgSil (antibody)", "heavy": "QVQLVESGGGVVQPGRSLRLSCAASGFRFSAYAMNWIRQPPGKGLEWIGLIYGKGSTFYASWAKERVTISVDTSKNQFSLKLSSVTAADTAVYYCARGRSVNYNSDFHLWGQGTLVTVSSASTKGPSVFPLAPSSKSTSGGTAALGCLVKDYFPEPVTVSWNSGALTSGVHTFPAVLQSSGLYSLSSVVTVPSSSLGTQTYICNVNHKPSNTKVDKRVEPKSCDKTHTCPPCPAPELRRGPSVFLFPPKPKDTLMISRTPEVTCVVVDVSDEDPEVKFNWYVDGVEVHNAKTKPREELYNSTYRVVSVLTVLHRDWLNGKEYKCKVSNTALPKPIEKTISKAKGQRREPQVYTLPPSREEMTKNQVSLTCLVKGFYPSDIAVEWESNGQPENNYKTTPPVLDSDGSFFLYSKLTVDKSRWQQGNVFSCSVLHEALHAHTTRKELSLSP", "light": "DIQMTQSPSSLSASVGDRVTITCQASQSLHDKKNLAWYQQKPGQPPKLLIYGASTLESGVPSRFSGSGSGTDFTLTISSLQPEDFATYYCQGEFSCSSADCNTFGQGTKVEIKRTVAAPSVFIFPPSDEQLKSGTASVVCLLNNFYPREAKVQWKVDNALQSGNSQESVTEQDSKDSTYSLSSTLTLSKADYEKHKVYACEVTHQGLSSPVTKSFNRGEC", "notes": "FcγR-silenced constant region FcgSil"}}, "experiment_in_all_cases": "SPR (Biacore T200), antibody captured on protein L, FcγR injected", "key": {"[1]": {"biological_target": "T1, cynomolgus Fc gamma receptor IIa1 (cynomolgus monkey)", "T1 construct": "also called cyFcγRIIa1", "T1 chain": "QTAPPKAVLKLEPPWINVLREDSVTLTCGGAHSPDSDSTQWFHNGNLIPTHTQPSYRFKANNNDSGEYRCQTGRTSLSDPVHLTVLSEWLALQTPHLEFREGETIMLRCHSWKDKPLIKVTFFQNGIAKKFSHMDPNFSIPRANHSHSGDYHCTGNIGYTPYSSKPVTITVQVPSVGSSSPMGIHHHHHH", "protocol": "(§1) The binding property of each sample to FcγRs at pH7.4 was determined at 25° C. using BIACORE® T200 instrument (Cytiva). First, protein L (BioVision) was immobilized onto all of the flow cells of a CM4 sensor chip using Amine Coupling Kit, type2 (Cytiva). 50 mM phosphate buffer (pH7.4) containing 150 mM NaCl, 0.05% Tween® 20 was used as the running buffer, and antibodies with the binding response of which were prepared to 500 RU or 2000 RU were captured on the sensor surface. Human and monkey FcγRs diluted with the running buffer were injected thereto and the amount bound with the antibodies was measured. hFcγRIa and cyFcγRIa were diluted to 8 nM, and the rest were diluted to 1000 nM. The sensor surface was regenerated every cycle, using 10 mM glycine hydrochloride solution, pH1.5 (prepared in-house)."}, "[2]": {"biological_target": "T2, cynomolgus Fc gamma receptor IIa3 (cynomolgus monkey)", "T2 construct": "also called cyFcγRIIa3", "T2 chain": "T1 chain with P95T, T121A, A128S, H133P, D135N", "protocol": "as §1"}, "[3]": {"biological_target": "T3, cynomolgus Fc gamma receptor IIb (cynomolgus monkey)", "T3 construct": "also called cyFcγRIIb", "T3 chain": "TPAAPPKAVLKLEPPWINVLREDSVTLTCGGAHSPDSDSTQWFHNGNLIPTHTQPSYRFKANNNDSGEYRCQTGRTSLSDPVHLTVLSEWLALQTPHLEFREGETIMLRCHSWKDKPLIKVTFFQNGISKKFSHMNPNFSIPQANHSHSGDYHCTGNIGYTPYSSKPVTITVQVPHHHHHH", "protocol": "as §1"}, "[4]": {"biological_target": "T4, cynomolgus Fc gamma receptor Ia (cynomolgus monkey, UniProt P12314 16-288 (human entry))", "T4 construct": "also called cyFcγRIa", "T4 chain": "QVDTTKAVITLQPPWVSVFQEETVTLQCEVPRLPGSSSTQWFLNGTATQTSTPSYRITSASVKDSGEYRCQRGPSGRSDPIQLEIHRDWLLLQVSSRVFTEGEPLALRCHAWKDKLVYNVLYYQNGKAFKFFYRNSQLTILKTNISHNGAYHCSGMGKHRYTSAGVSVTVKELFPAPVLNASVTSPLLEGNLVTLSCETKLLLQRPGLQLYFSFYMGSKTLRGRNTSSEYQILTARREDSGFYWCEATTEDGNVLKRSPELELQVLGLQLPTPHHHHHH", "protocol": "as §1"}, "[5]": {"biological_target": "T5, cynomolgus Fc gamma receptor IIa2 (cynomolgus monkey)", "T5 construct": "also called cyFcγRIIa2", "T5 chain": "T1 chain with P95T, T121A, I127K, A128S, K130N, D135N, R142Q", "protocol": "as §1"}, "[6]": {"biological_target": "T6, cynomolgus Fc gamma receptor IIIa (R) (cynomolgus monkey, UniProt Q8SPW2 17-208)", "T6 construct": "also called cyFcγRIIIa(R)", "T6 sequence (Q8SPW2 other isoform, or with tags, fused parts or gaps)": "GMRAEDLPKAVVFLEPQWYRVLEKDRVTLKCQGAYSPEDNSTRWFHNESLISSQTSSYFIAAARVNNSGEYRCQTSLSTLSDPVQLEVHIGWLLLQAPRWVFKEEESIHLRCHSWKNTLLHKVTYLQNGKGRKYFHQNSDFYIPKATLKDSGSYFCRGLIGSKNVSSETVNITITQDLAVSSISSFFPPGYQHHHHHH", "protocol": "as §1"}, "[7]": {"biological_target": "T7, cynomolgus Fc gamma receptor IIIa (S) (cynomolgus monkey, UniProt Q8SPW2 21-206 at identity 1.00))", "T7 construct": "also called cyFcγRIIIa(S)", "T7 chain": "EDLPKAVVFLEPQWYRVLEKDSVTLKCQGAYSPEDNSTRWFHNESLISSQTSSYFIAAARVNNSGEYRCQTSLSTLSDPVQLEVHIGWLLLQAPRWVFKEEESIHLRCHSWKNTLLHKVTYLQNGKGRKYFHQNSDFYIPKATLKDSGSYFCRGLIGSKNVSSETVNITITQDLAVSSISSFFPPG", "protocol": "as §1"}}, "note": "Where a chain is given by its changes, count along the chain named."}
{"binder": "B1", "values": [{"measurement": "binding result", "setting": "[1]", "result": "no binding (tested: 1000 nM)"}, {"measurement": "binding result", "setting": "[2]", "result": "no binding (tested: 1000 nM)"}, {"measurement": "binding result", "setting": "[3]", "result": "no binding (tested: 1000 nM)"}, {"measurement": "binding result", "setting": "[4]", "result": "no binding (tested: 8 nM)"}, {"measurement": "binding result", "setting": "[5]", "result": "no binding (tested: 1000 nM)"}, {"measurement": "binding result", "setting": "[6]", "result": "no binding (tested: 1000 nM)"}, {"measurement": "binding result", "setting": "[7]", "result": "no binding (tested: 1000 nM)"}]}
